# Measurements reported in US20090176711A1, “INHIBITORS OF AMYLOID PRECURSOR PROTEIN PROCESSING” (priority 2008, published 2009).
# Non-standard residues stand in square brackets, D forms with d. No end group written: not given here. *: point of attachment. Biotin = O=C1N[C@H]2[C@H](CS[C@H]2CCCCC(=O)*)N1; Dnp = O=[N+]([O-])c1ccc(*)c([N+](=O)[O-])c1; Mca = COc1ccc2c(CC(=O)*)cc(=O)oc2c1; Ahx = NCCCCCC(=O)O
# What was measured:
# [1] = system: cleavage of F-Substrate M (f-Sub M) by rhBACE1; assay: Fluorometric (FRET) assay for cleavage of F-Substrate M by rhBACE; assay type: biochemical, human; settings: cleavage of f-Sub M by rhBACE1 (FIG. 29A)
# Source text: This assay system utilizes fluorescence resonance energy transfer (FRET) technology. Substrate M was synthesized with two fluorophores, a fluorescent donor and a proprietary quenching acceptor (purchased from a commercial source, R&D Systems). […] Upon cleavage of substrate by β-secretase, the fluorophore is separated from the quenching group, restoring the full fluorescence yield of donor.
# Substrate labeled with fluorophores will be called F-Substrate M (R&D Systems). Recombinant human β-secretase will be called rhBACE (recombinant human β-site APP cleavage enzyme) (purchased from R&D systems).
# F-Substrate M (20 μM) was preincubated with varying concentrations of complementary peptides in assay buffer (0.1 M NaOAc, pH 4.0) for 1 hr at RT. rhBACE (70 nM) in assay buffer was added. Cleavage by rhBACE was detected by reading emitted fluorescence level.
# In this assay system, fluorescence resonance energy transfer (FRET) technology was utilized. Swedish mutant APP substrate (f-Sub M) with a fluorescent donor and a proprietary quenching acceptor (7-methoxycoumarin-4-acetyl-SEVNLDAEFRK(Dnp)-RR-NH2) was purchased from R&D systems, Inc (MN, USA). […] Upon cleavage of substrate by rhBACE1 (R&D Systems, Inc., MN, USA), the fluorescence donor is separated from the quenching group, restoring the full fluorescence yield of the donor. f-Sub M (10 μM) was pre-incubated with HC peptide in assay buffer (0.1 M NaOAc, pH 4.0) for 2 h at RT. After pre-incubation, substrate and HC peptide mixture in assay buffer was transferred to FluoroNunc™ 96 well white plate (Nunc, Roskilde, Denmark), and rhBACE1 (70 nM) was added. Time-dependent emission of fluorescence (excitation at 320 nm, emission at 405 nm) was monitored in a Molecular Devices SpectraMax Gemini EM fluorescence reader (CA, USA) for 1 h at 37° C. All assays were carried out in duplicate.
# [2] = system: production of Aβ in HEK 293-APP cells; assay: Measurement of Aβ level in culture media of HEK293-APP cells (Aβ1-40 immunoassay); assay type: cell-based, human
# Procedure: Human embryonic kidney (HEK) 293 cells stably transformed with the gene for APP695 (HEK 293-APP) were used for studies on the inhibitory activity of HC peptides. HEK 293-APP cells were generously supplied by Dr. T W Kim (Columbia University, NY, USA). HEK 293-APP cells were cultured in Dulbecco's Modified Eagle's Medium (DMEM) (Invitrogen, CA, USA) with 10% fetal bovine serum (HyClone, UT, USA) and 300 μg/ml of geneticin (Invitrogen, CA, USA) in a humidified atmosphere of 5% CO2, 95% air at 37° C. Cells were subcultured after trypsinization, and the medium was changed every 2-3 days.
# Most of the APP processing including the cleavage by BACE1 occurs in endoplasmic reticulum (ER)/Golgi complex and endosome. It was investigated if c-Sub M and the deletion series would inhibit processing of APP in the cells. For this examination, HEK293 cells transformed with wild type human APP genes for our investigation was chosen.
# The culture media from the peptide-treated cells (see above) was harvested and centrifuged at 3500×g for 10 min. Amount of Aβ in the supernatant was determined with human Aβ1-40 immunoassay kits (Signal Select™, BioSource, CA, USA) according to the instruction provided by the company.
# [3] = system: CTFβ accumulation (cleavage of APP by BACE1) in HEK 293-APP cells; assay: Level of CTFβ in HEK 293-APP cells (immunoblot, 6E10); assay type: cell-based, human; settings: HEK293-APP cells, 9 h
# Procedure: When the confluency of the cells reached 90%, the cells were washed with PBS once, and HC peptide in serum free DMEM was added to the cells. […] The lysed cells were centrifuged at 12000×g for 10 min at 4° C. The protein in the supernatant was determined by bicinchoninic acid assay (Pierce, IL, USA) [Smith, P. K., Krohn, R. I., Hermanson, G. T., Mallia, A. K., Gartner, F. H., Provenzano, M. D., Fujimoto, E. K., Goeke, N. M., Olson, B. J., and Klenk, D. C. […] After electrophoresis, the proteins in the gel were electrophoretically transferred onto a polyvinylidene difluoride (PVDF) membrane at 100 mA for 80 min. The blotted membrane was fixed with 0.2% glutaraldehyde in PBS for 45 min at RT and treated for 5 min in boiling PBS. CTFβ (the C-terminal fragment of APP generated by BACE1) was detected by treatment of the membrane with 0.5 μg/ml of anti-Aβ Nterminal 6E10 antibody (Signetlabs, Inc., MA, USA) followed by incubation with 0.2 μg/ml of anti-mouse antibody coupled with HRP (Amersham Biosciences Ltd. Uppsala, Sweden). The developed film was scanned and the density of CTFβ band was determined by Scion Image Program (Scion Corporation, MD, USA).
# [4] = target: T1, N-terminally biotinylated Substrate W; assay: plate assay: complementary peptide on wells, biotinylated substrate, streptavidin-HRP
# T1 construct: also called bio-Sub W; Sub W
# T1 peptide: Biotin-SEVKMDAEFR
# Procedure: (§1) Complementary peptides (0.2, 2, 20, and 200 μM) were dissolved in phosphate buffered saline (PBS) (pH 7.4) and fixed to microtiter wells for 5 hr at 37° C. The wells were blocked with blocking buffer (3% BSA/PBS) for 1 hr at 37° C. Either N-terminally biotinylated Substrate W or M (20 μM) in blocking buffer was added and incubated for overnight at 4° C. Streptavidin-horseradish peroxidase in blocking buffer was added to detect resulting bound substrates. The plate was incubated for 2 hr at room temperature (RT), followed by addition of 3,3′,5,5′-tetramethyl-benzidine (TMB) as substrate for horseradish peroxidase for color reaction.
# [5] = target: T2, N-terminally biotinylated Substrate M; assay: plate assay: HC peptide chemically coupled to wells, bio-Sub M, streptavidin-HRP (Table 1)
# T2 construct: also called bio-Sub M; Sub M
# T2 peptide: Biotin-SEVNLDAEFR
# Procedure: (§2) Reacti-Bind™ maleic anhydride-activated polystyrene plate (Pierce, IL, USA) was coated with 50 μl of HC peptide (200 μM in distilled water) by chemical coupling for 3 h at room temperature (RT) and washed three times with phosphate buffered saline (PBS) containing 0.05% tween 20 (PBST). The plate was blocked with blocking buffer (0.5% gelatin in PBS) for 1 h at RT. After discarding blocking buffer, biotinylated BACE1 substrates (200 μM) in blocking buffer was applied on the plate and incubated for 2.5 h at RT. Each well was washed three times with PBST. The bound biotinylated BACE1 substrates were detected by incubation with streptavidin-horseradish peroxidase (Str-HRP, 125 mU/ml in blocking buffer) for 2 h at RT. Color reaction was carried out with 50 μl of 3,3′,5,5′-Tetramethylbenzidine Liquid Substrate (Sigma-Aldrich, MO, USA). After stopping the reaction by addition of an equal volume of 1 N HCl, absorbance at 450 nm was read in an automated ELISA reader (EL 312e, Bio-Tek Instruments, VT, USA). All assays were carried out in duplicate.
# The HC peptides were chemically coupled to the surface of a microtiter plate to minimize the different coating efficiency of peptides, and the Sub M labeled with biotin (bio-Sub M) was applied. bio-Sub M bound to c-Sub but not to Sub M-c (FIG. 25A). To test inhibitory activity of HC peptide, FRET assay system was used as described above. […]
# [6] = target: T3, f-Sub M (7-methoxycoumarin-4-acetyl-SEVNLDAEFRK(Dnp)-RR-NH2); assay: cell-based or functional assay
# T3 peptide: Mca-SEVNLDAEFRK(Dnp)RR-NH2
# [7] = target: T4, recombinant human β-secretase (rhBACE1) (human, UniProt P56817 22-457, limits assumed); assay: ELISA, c-Sub M immobilized
# T4 construct: Bought reagent; also called recombinant human β-site APP cleavage enzyme
# [8] = target: T2, N-terminally biotinylated Substrate M; assay: plate assay: complementary peptide on wells, biotinylated substrate, streptavidin-HRP
# Procedure: as §1
# [9] = target: T1, N-terminally biotinylated Substrate W; assay: plate assay: HC peptide chemically coupled to wells, bio-Sub W, streptavidin-HRP (FIG. 27)
# Procedure: as §2
# Thereafter, it was investigated if the c-Sub M and the deletions series bind to wild type Sub W. The results will give us important information on possibility of inhibition of wild type of APP cleavage in cells by the HC peptides derived from Sub M in view of the poor cleavage of Sub W by rhBACE1 in vitro. […] Thus, there is possibility that the HC peptides for Sub M (c-Sub M series) or its peptidomimetics will inhibit the cleavage of wild type APP by BACE1 in cells.
# [10] = target: T2, N-terminally biotinylated Substrate M; assay: plate assay: HC peptide chemically coupled to wells, bio-Sub M, streptavidin-HRP (Table 2)
# Procedure: as §2
# The binding and inhibitory activities of these peptides were determined as described in Experimental Procedures. The concentration of HC peptides and f-Sub M was 0.5 mM and 10 μM, respectively. All the experimental data for the binding activity as well as for the inhibitory activity were within 5% error range.
# T4 sequence (P56817 22-457 limits assumed): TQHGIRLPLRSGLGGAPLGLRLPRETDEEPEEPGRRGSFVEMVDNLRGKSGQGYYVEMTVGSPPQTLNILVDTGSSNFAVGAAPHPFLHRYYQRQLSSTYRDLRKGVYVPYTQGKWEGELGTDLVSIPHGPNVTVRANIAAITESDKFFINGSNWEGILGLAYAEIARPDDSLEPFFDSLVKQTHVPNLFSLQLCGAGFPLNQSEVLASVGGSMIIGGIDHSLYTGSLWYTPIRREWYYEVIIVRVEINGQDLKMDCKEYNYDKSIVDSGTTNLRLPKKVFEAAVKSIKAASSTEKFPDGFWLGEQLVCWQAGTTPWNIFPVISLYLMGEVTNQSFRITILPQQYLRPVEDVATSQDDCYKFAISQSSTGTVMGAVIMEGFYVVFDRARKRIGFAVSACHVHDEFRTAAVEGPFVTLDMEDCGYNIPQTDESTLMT
molecule,measurement,setting,value
NH2-(CH2)5-CO-Cys-Ile-Gln-Ile-His-Phe-NH2 ([Ahx]CIQIHF-NH2; N-terminus assumed; SMILES CC[C@H](C)[C@H](NC(=O)[C@H](CCC(N)=O)NC(=O)[C@@H](NC(=O)[C@H](CS)NC(=O)CCCCCN)[C@@H](C)CC)C(=O)N[C@@H](Cc1c[nH]cn1)C(=O)N[C@@H](Cc1ccccc1)C(N)=O) [AHX-c-Sub M ΔN3C1],in vitro inhibitory activity relative to non-modified c-Sub M ΔN3C1,[1],by half
same,reduction of amount of Aβ released,"[2]; 6.25 μM, 9 h",about 70%
same,amount of Aβ released into the culture medium,[2]; increasing concentrations,reduced in a concentration dependent manner
same,accumulation of the cleavage product CTFβ,[3],inhibited the accumulation of both forms of CTFβs
β-secretase inhibitor IV [reference compound],inhibition of production of Aβ,[2]; 2 μM,about 90%
same,accumulation of the cleavage product CTFβ,[3],inhibited accumulation of only the nonphosphorylated form of CTFβ
"SEFCIHLHFR-NH2 (Hydropathic complementary decapeptide to Sub W, read 5'-3') [c-Sub W]",binding result,[4],binds
same,binding result,[5],binds
"RLHFYLRLKA-NH2 (Hydropathic complementary decapeptide to Sub W, read 3'-5') [Sub W-c]",binding result,[5],binds
"SEFCIQIHFR-NH2 (Hydropathic complementary decapeptide to Sub M, read 5'-3') [c-Sub M]","inhibition of cleavage of f-Sub M by rhBACE1 (FRET), HC peptide 100 fold over substrate",[6],~50%
same,"inhibitory activity for the cleavage of f-Sub M by rhBACE1 (FRET; HC peptide 1 mM, f-Sub M 10 µM)",[6],45%
same,binding result,[7],no binding
same,binding result,[8],binds
same,fold binding to Sub W relative to c-Sub W,[9],4 fold
SEFCIQIHF-NH2 [c-Sub M ΔC1],"inhibitory activity for the cleavage of f-Sub M by rhBACE1 (FRET; HC peptide 1 mM, f-Sub M 10 µM)",[6],90%
same,binding result,[10],binds
